# Laboratory results taken from US20250189530A1 (STCUBE, published 2025).
# T1: BTN1A1 peptide 4 Mutant 8 (T368A) (human)
# T1 construct: The entry already carries the mutation; also called BTN1A1-pep4- Mutant 8
# T1 peptide: EVEVGDRADWAIGVC
# T2: BTN1A1 peptide 4 Mutant 9 (D369A) (human)
# T2 construct: The entry already carries the mutation; also called BTN1A1-pep4- Mutant 9
# T2 peptide: EVEVGDRTAWAIGVC
# T3: BTN1A1 peptide 4 Mutant 10 (W370A) (human)
# T3 construct: The entry already carries the mutation; also called BTN1A1-pep4- Mutant 10; mutant peptide #10
# T3 peptide: EVEVGDRTDAAIGVC
# T4: BTN1A1 peptide 4 Mutant 11 (A371G) (human)
# T4 construct: The entry already carries the mutation; also called BTN1A1-pep4- Mutant 11
# T4 peptide: EVEVGDRTDWGIGVC
# T5: BTN1A1 peptide 4 Mutant 12 (I372A) (human)
# T5 construct: The entry already carries the mutation; also called Mutant 12 (1372A); BTN1A1-pep4- Mutant 12
# T5 peptide: EVEVGDRTDWAAGVC
# T6: TRIM11 peptide
# T6 peptide: EVEVGDRTSWALGVC
# T7: BTN1A1 Peptide 4 (human)
# T7 construct: also called BTN1A1-pep4- WT; Pep4
# T7 peptide: EVEVGDRTDWAIGVC
# T8: BTN1A1 peptide 4 Mutant 5 (G365A) (human)
# T8 construct: The entry already carries the mutation; also called BTN1A1-pep4- Mutant 5
# T8 peptide: EVEVADRTDWAIGVC
# T9: BTN1A1 peptide 4 Mutant 6 (D366A) (human)
# T9 construct: The entry already carries the mutation; also called BTN1A1-pep4- Mutant 6; mutant peptide #6
# T9 peptide: EVEVGARTDWAIGVC
# T10: BTN1A1 peptide 4 Mutant 7 (R367A) (human)
# T10 construct: The entry already carries the mutation; also called BTN1A1-pep4- Mutant 7
# T10 peptide: EVEVGDATDWAIGVC
# T11: hBTN1A1 ICD (human, UniProt Q13410 270-526)
# T11 sequence: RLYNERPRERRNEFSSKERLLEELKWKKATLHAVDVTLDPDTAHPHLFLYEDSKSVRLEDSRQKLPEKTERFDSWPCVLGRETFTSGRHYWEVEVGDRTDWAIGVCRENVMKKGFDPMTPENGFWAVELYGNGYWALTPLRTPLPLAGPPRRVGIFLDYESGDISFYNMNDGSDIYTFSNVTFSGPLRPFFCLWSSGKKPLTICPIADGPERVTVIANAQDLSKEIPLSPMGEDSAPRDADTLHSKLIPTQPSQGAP
# T12: denatured hBTN1A1 ICD (human, UniProt Q13410 270-526)
# T12 construct: Same protein as hBTN1A1 ICD, denatured before the ELISA; also called hBTN1A1 ICD denatured; Denatured ICD
# T12 sequence: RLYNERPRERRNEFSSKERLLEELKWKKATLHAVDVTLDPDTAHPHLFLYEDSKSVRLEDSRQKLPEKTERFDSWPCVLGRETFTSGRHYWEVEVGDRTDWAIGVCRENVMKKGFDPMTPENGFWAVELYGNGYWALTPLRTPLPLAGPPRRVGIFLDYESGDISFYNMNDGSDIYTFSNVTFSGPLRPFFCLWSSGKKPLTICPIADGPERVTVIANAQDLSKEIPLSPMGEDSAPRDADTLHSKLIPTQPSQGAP
# B1: STC43H11-1 (antibody, V domains shown)
# VH: QSLEESGGRLVTPGGSLTLTCTVSGIDLSSYAMGWVRQAPGEGLEWIGSIGTGGGTGYASWAKGRFTISKTSTTVDLKMTSLTASDTATYFCATSNLWGPGTLVTVSS
# VL: QVLTQTASPVSAAVGGTVTINCQASQSVYNNNRCSWFQQKPGQPPKRLIYHTSTLDSGVPSRFKGSGSGTQFTLTISDVQCDDAATYYCLGNYDCSRADCAAFGGGTEVVVK
# notes: From immunized New Zealand rabbits; IgG heavy chain and Kappa light chain; also called clone #43H11; Clone 43H11
# Experiments:
# [1] = target: T1, BTN1A1 peptide 4 Mutant 8 (T368A); test: KD against BTN1A1-pep4- WT
# [2] = target: T2, BTN1A1 peptide 4 Mutant 9 (D369A); test: KD against BTN1A1-pep4- WT
# [3] = target: T3, BTN1A1 peptide 4 Mutant 10 (W370A); test: KD against BTN1A1-pep4- WT
# [4] = target: T4, BTN1A1 peptide 4 Mutant 11 (A371G); test: KD against BTN1A1-pep4- WT
# [5] = target: T5, BTN1A1 peptide 4 Mutant 12 (I372A); test: KD against BTN1A1-pep4- WT
# [6] = target: T6, TRIM11 peptide; test: KD against BTN1A1-pep4- WT
# [7] = target: T7, BTN1A1 Peptide 4; test: KD against BTN1A1-pep4- WT
# [8] = target: T8, BTN1A1 peptide 4 Mutant 5 (G365A); test: KD against BTN1A1-pep4- WT
# [9] = target: T9, BTN1A1 peptide 4 Mutant 6 (D366A); test: KD against BTN1A1-pep4- WT
# [10] = target: T10, BTN1A1 peptide 4 Mutant 7 (R367A); test: KD against BTN1A1-pep4- WT
# [11] = target: T7, BTN1A1 Peptide 4; test: ELISA clone screen, GenScript
# [12] = target: T11, hBTN1A1 ICD; test: ELISA clone screen, GenScript
# [13] = target: T12, denatured hBTN1A1 ICD; test: ELISA clone screen, GenScript
# [14] = target: TRIM variant expressed by HEK293T cells; test: western blot, HEK293T lysate, antibody 1 ug/ml
# [15] = target: peptide 4 WT expressed by HEK293T cells (human); test: western blot, HEK293T lysate, antibody 1 ug/ml
# [16] = target: peptide 4 variant A371G expressed by HEK293T cells (human); test: western blot, HEK293T lysate, antibody 1 ug/ml
# [17] = target: peptide 4 variant C375A expressed by HEK293T cells (human); test: western blot, HEK293T lysate, antibody 1 ug/ml
# [18] = target: peptide 4 variant D366A expressed by HEK293T cells (human); test: western blot, HEK293T lysate, antibody 1 ug/ml
# [19] = target: peptide 4 variant D369A expressed by HEK293T cells (human); test: western blot, HEK293T lysate, antibody 1 ug/ml
# [20] = target: peptide 4 variant E361A expressed by HEK293T cells (human); test: western blot, HEK293T lysate, antibody 1 ug/ml
# [21] = target: peptide 4 variant E363A expressed by HEK293T cells (human); test: western blot, HEK293T lysate, antibody 1 ug/ml
# [22] = target: peptide 4 variant G365A expressed by HEK293T cells (human); test: western blot, HEK293T lysate, antibody 1 ug/ml
# [23] = target: peptide 4 variant G373A expressed by HEK293T cells (human); test: western blot, HEK293T lysate, antibody 1 ug/ml
# [24] = target: peptide 4 variant I372A expressed by HEK293T cells (human); test: western blot, HEK293T lysate, antibody 1 ug/ml
# [25] = target: peptide 4 variant R367A expressed by HEK293T cells (human); test: western blot, HEK293T lysate, antibody 1 ug/ml
# [26] = target: peptide 4 variant T368A expressed by HEK293T cells (human); test: western blot, HEK293T lysate, antibody 1 ug/ml
# [27] = target: peptide 4 variant V362A expressed by HEK293T cells (human); test: western blot, HEK293T lysate, antibody 1 ug/ml
# [28] = target: peptide 4 variant V364A expressed by HEK293T cells (human); test: western blot, HEK293T lysate, antibody 1 ug/ml
# [29] = target: peptide 4 variant V374A expressed by HEK293T cells (human); test: western blot, HEK293T lysate, antibody 1 ug/ml
# [30] = target: peptide 4 variant W370A expressed by HEK293T cells (human); test: western blot, HEK293T lysate, antibody 1 ug/ml
# [31] = target: T4, BTN1A1 peptide 4 Mutant 11 (A371G); test: kinetics of peptide on STC43H11-1, separate assay, method not named
binder,measurement,setting,value
B1,Fold change,[1],21 fold
same,Fold change,[2],463 fold
same,Fold change,[3],59 fold
same,Fold change,[4],16 fold
same,Fold change,[5],126 fold
same,Fold change,[6],7360 fold
same,Fold change,[7],1 fold
same,Fold change,[8],20 fold
same,Fold change,[9],160 fold
same,Fold change,[10],4 fold
same,ELISA signal,[11],0.609
same,ELISA signal,[12],1.6
same,ELISA signal,[13],2.27
same,STC43H11-1 Adj. Vol. (Int),[14],-7610
same,STC43H11-1 Adj. Vol. (Int),[15],4.02e+06
same,STC43H11-1 Adj. Vol. (Int),[16],156000
same,STC43H11-1 Adj. Vol. (Int),[17],4.8e+06
same,STC43H11-1 Adj. Vol. (Int),[18],-228000
same,STC43H11-1 Adj. Vol. (Int),[19],5470
same,STC43H11-1 Adj. Vol. (Int),[20],1.35e+06
same,STC43H11-1 Adj. Vol. (Int),[21],2.61e+06
same,STC43H11-1 Adj. Vol. (Int),[22],2.26e+06
same,STC43H11-1 Adj. Vol. (Int),[23],19900
same,STC43H11-1 Adj. Vol. (Int),[24],4010
same,STC43H11-1 Adj. Vol. (Int),[25],1.48e+06
same,STC43H11-1 Adj. Vol. (Int),[26],374000
same,STC43H11-1 Adj. Vol. (Int),[27],7.03e+06
same,STC43H11-1 Adj. Vol. (Int),[28],480000
same,STC43H11-1 Adj. Vol. (Int),[29],672000
same,STC43H11-1 Adj. Vol. (Int),[30],221000
same,Kd,[31],1.39 nM
same,koff,[31],0.000425 s⁻¹
same,kon,[31],306000 M⁻¹ s⁻¹
